Data published in the supplement of paper PMC9233669.
Fewer inactive variants are shown than the library holds.

Columns and labels:
biotinyl-Ile-oxazolone = test: self-aminoacylation, catalytic enhancement (BIO) (fold over background); higher = more active; k-Seq, kA / k0A0; sequences stand for … in GGGAAUGGAUCCACAUCUACGAAUUC…UUCACUGCAGACUUGACGAAGCUG
Outline: (§1)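 The uncatalyzed rate is the low-activity peak of a bimodal Gaussian fit, and catalytic enhancement is median kA divided by it. The kA values came from pseudo-first-order fits, with 1000 bootstraps, of per-sequence fraction reacted measured by streptavidin capture, triplicate qPCR and Illumina sequencing. Mutagenized RNA pools with a 21-nt variable region (0.43 μM) were reacted with each biotinyl-aminoacyl-oxazolone at 2–1250 μM in 50 μL HEPES/NaCl/KCl/MgCl2/CaCl2 buffer with 5% acetonitrile, pH 6.9–7.0, for 90 minutes at room temperature.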

biotinyl-Trp-oxazolone = test: self-aminoacylation, catalytic enhancement (BWO) (fold over background); higher = more active; k-Seq, kA / k0A0; sequences stand for … in GGGAAUGGAUCCACAUCUACGAAUUC…UUCACUGCAGACUUGACGAAGCUG
Outline: as §1

biotinyl-Val-oxazolone = test: self-aminoacylation, catalytic enhancement (BVO) (fold over background); higher = more active; k-Seq, kA / k0A0; sequences stand for … in GGGAAUGGAUCCACAUCUACGAAUUC…UUCACUGCAGACUUGACGAAGCUG
Outline: as §1

biotinyl-Leu-oxazolone = test: self-aminoacylation, catalytic enhancement (BLO) (fold over background); higher = more active; k-Seq, kA / k0A0; sequences stand for … in GGGAAUGGAUCCACAUCUACGAAUUC…UUCACUGCAGACUUGACGAAGCUG
Outline: as §1

biotinyl-Phe-oxazolone = test: self-aminoacylation, catalytic enhancement (BFO) (fold over background); higher = more active; k-Seq, kA / k0A0; sequences stand for … in GGGAAUGGAUCCACAUCUACGAAUUC…UUCACUGCAGACUUGACGAAGCUG
Outline: as §1

biotinyl-Met-oxazolone = test: self-aminoacylation, catalytic enhancement (BMO) (fold over background); higher = more active; k-Seq, kA / k0A0; sequences stand for … in GGGAAUGGAUCCACAUCUACGAAUUC…UUCACUGCAGACUUGACGAAGCUG
Outline: as §1

Sequence | self-aminoacylation (biotinyl-Ile-oxazolone) | self-aminoacylation (biotinyl-Trp-oxazolone) | self-aminoacylation (biotinyl-Val-oxazolone) | self-aminoacylation (biotinyl-Leu-oxazolone) | self-aminoacylation (biotinyl-Phe-oxazolone) | self-aminoacylation (biotinyl-Met-oxazolone)
CUUACCCUGGUCAUCGUGUGA [Fam2.1 aminoacylation ribozyme variant] | 1.79 | 2.98 | 2.11 | 2.87 | 11.1 | 2.8
CUUACCCUGGUCAUUGAGUGA [Fam2.1 aminoacylation ribozyme variant] | 3.9 | 8.86 | 3.81 | 7.58 | 22.8 | 7.17
CUUACCCUGGUCCUCGAGUGA [Fam2.1 aminoacylation ribozyme variant] | 2.44 | 5.89 | 3.36 | 4.96 | 28.8 | 5.36
CUUACCCUUGUCAUCGAGUGA [Fam2.1 aminoacylation ribozyme variant] | 2.56 | 5.14 | 3.03 | 4.14 | 7.91 | 4.62
CUUCAACUAGGUCAUCGGGUG [Fam2.2 aminoacylation ribozyme variant] | 3.17 | 4.93 | 3.22 | 6.16 | 31.8 | 5.42
CUUCACCUAAGUCAUCGGGUG [Fam2.2 aminoacylation ribozyme variant] | 4.46 | 5.5 | 5.22 | 8.79 | 42.2 | 6.58
CUUCACCUAGCUCAUCGGGUG [Fam2.2 aminoacylation ribozyme variant] | 1.76 | 2.82 | 2.37 | 2.43 | 9.04 | 2.21
CUUCACCUAGGUCAUCCGGUG [Fam2.2 aminoacylation ribozyme variant] | 5.77 | 6.39 | 4.94 | 8.19 | 34.5 | 6.47
CUUCACCUAGGUCAUCGGGUA [Fam2.2 aminoacylation ribozyme variant] | 4.43 | 5.72 | 5.19 | 7.28 | 23.4 | 6.65
CUUCACCUAGGUCAUGGGGUG [Fam2.2 aminoacylation ribozyme variant] | 2.5 | 3.7 | 2.7 | 4.06 | 11.6 | 2.84
CUUCAUCUAGGUCAUCGGGUG [Fam2.2 aminoacylation ribozyme variant] | 4.55 | 5.49 | 4.7 | 7.99 | 38.8 | 6.52
CUUCCCCUAGGUCAUCGGGUG [Fam2.2 aminoacylation ribozyme variant] | 4.92 | 7.71 | 5.07 | 10.5 | 60.1 | 8.7
CUUCCCCUGGUCAUCGAGUGA [Fam2.1 aminoacylation ribozyme variant] | 3.23 | 7.51 | 3.42 | 6.32 | 40.1 | 5.92
CUUCGUCAAACAAUCGGUCUG [Fam1A.1 aminoacylation ribozyme variant] | 1.87 | 2.23 | 1.55 | 1.62 | 9.15 | 1.65
CUUCUUCAAACAACCGGUCUG [Fam1A.1 aminoacylation ribozyme variant] | 1.11 | 0.846 | 0.949 | 0.961 | 0.852 | 0.98
CUUCUUCAAACAAUAGGUCUG [Fam1A.1 aminoacylation ribozyme variant] | 0.883 | 0.568 | 0.832 | 0.825 | 0.983 | 0.817
CUUCUUCAAACAAUCGGUCGG [Fam1A.1 aminoacylation ribozyme variant] | 0.873 | 7.44 | 0.789 | 1.24 | 10.9 | 1.12
CUUCUUCAAACAAUCUGUCUG [Fam1A.1 aminoacylation ribozyme variant] | 0.768 | 1.15 | 0.698 | 0.748 | 2.27 | 0.587
CUUCUUCAAACCAUCGGUCUG [Fam1A.1 aminoacylation ribozyme variant] | 0.856 | 0.509 | 0.775 | 0.722 | 0.739 | 0.682
GAGUUUGCGAAUAGUCGCAAG [Fam3.1 aminoacylation ribozyme variant] | 1.68 | 2.35 | 1.56 | 1.76 | 7.65 | 1.8
GAGUUUGCUAAUAGUCGCAAA [Fam3.1 aminoacylation ribozyme variant] | 2.47 | 1.59 | 2.15 | 1.93 | 3.15 | 1.64
GAGUUUGCUAAUAGUCGCGAG [Fam3.1 aminoacylation ribozyme variant] | 1.55 | 2.17 | 1.38 | 1.47 | 1.76 | 1.63
GAGUUUGCUUAUAGUCGCAAG [Fam3.1 aminoacylation ribozyme variant] | 1.65 | 1.75 | 1.39 | 1.24 | 2.28 | 1.44
GCACACUACAAGCAAUCGGUC [Fam1B.1 aminoacylation ribozyme variant] | 1.36 | 1.68 | 1.26 | 1.14 | 1.55 | 0.979
GCACACUGCAAGCAAUCGGUC [Fam1B.1 aminoacylation ribozyme variant] | 2.14 | 2.4 | 2.12 | 1.87 | 1.77 | 1.87
GCACACUUCAAGCAAUCGGGC [Fam1B.1 aminoacylation ribozyme variant] | 3.11 | 4.23 | 3.09 | 3.02 | 13.7 | 2.58
